# T1: recombinant Human IL-17BR-His extracellular domain (human, UniProt Q9NRM6 18-292)
# T1 construct: extracellular domain; also called human IL17BR-his tag protein
# T1 sequence (looked up): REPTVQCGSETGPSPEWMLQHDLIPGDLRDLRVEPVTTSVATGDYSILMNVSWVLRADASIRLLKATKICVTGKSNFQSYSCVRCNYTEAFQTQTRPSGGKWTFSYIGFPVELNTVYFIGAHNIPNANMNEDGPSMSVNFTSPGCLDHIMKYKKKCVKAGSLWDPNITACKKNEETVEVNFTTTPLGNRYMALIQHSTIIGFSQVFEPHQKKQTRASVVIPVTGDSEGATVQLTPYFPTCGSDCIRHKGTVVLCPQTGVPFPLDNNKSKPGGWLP
# T2: human IL17RD-his tag (human, UniProt Q8NFM7 17-299, limits assumed)
# T2 construct: Bought
# T2 sequence (looked up): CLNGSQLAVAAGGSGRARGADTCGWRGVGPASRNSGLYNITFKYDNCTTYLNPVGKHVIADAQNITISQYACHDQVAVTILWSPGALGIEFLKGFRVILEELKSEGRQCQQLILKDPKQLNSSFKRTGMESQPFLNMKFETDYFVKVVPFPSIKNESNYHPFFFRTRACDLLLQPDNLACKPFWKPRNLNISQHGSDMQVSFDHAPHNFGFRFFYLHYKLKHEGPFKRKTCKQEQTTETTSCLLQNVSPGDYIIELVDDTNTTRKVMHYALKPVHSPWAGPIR
# T3: human IL17RC-histag protein (human, UniProt Q8NAC3-2 21-467, limits assumed)
# T3 construct: Bought
# T3 sequence (looked up): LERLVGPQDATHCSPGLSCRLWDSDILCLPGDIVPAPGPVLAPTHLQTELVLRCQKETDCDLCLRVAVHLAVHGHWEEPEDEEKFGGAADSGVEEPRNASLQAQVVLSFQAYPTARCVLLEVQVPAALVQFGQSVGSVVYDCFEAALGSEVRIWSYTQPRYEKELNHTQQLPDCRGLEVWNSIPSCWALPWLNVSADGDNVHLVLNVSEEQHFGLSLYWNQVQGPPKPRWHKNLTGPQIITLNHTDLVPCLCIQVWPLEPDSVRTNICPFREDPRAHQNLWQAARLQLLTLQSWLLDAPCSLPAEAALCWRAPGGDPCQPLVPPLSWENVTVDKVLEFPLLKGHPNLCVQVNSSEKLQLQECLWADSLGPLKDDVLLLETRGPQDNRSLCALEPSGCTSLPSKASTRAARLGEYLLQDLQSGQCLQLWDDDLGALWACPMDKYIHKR
# T4: human IL17RA-Fc fusion protein (human, UniProt Q96F46 33-320)
# T4 construct: Bought; not shown: Fc part of the bought fusion, not described
# T4 sequence (looked up): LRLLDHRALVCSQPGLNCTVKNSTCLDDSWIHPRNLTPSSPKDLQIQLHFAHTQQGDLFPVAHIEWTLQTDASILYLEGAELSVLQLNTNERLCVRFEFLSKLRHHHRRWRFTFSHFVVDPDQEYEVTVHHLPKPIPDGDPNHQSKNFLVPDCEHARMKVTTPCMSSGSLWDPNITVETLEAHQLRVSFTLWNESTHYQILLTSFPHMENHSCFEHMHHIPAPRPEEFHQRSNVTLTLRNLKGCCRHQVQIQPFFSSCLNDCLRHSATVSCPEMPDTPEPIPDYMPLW
# T5: Mouse IL-17BR-(Fc) (mouse, UniProt Q9JIP3 18-286)
# T5 construct: extracellular domain; Bought (Sino Biological); not shown: Fc part of the bought fusion (Sino Biological), not described
# T5 sequence (looked up): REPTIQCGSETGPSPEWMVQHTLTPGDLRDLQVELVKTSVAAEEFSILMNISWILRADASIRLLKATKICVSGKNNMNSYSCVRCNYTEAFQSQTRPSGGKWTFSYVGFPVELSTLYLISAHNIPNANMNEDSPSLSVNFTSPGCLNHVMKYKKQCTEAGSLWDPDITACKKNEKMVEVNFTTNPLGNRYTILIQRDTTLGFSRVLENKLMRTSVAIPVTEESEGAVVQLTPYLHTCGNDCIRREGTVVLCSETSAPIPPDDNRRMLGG
# Assays:
# [1] = target: T1, recombinant Human IL-17BR-His …; experiment: Biacore T200, antibody captured by anti-human Fc, Human IL17BR-His 20-1.25 nM, 1:1 model
# Procedure: A Human Antibody Capture kit was used to coat an anti-human IgG (Fc) antibody (in 10 mM sodium acetate, pH 5.0 immobilisation buffer) onto flow paths 2-4 a CM5 chip. Flow-path 1 was blocked and used as a blank control. This anti-human IgG coated chip was then used to immobilize the humanized antibody variants. A concentration series from 20-1.25 nM of Human IL17BR-His using a 2-fold dilution series was made using HBS-EP⁺ buffer. Purified antibody samples were diluted to 1 μg/ml in HBS-EP⁺ buffer and each injected onto one coated flow-path on the chip at a flow-rate of 10 μl/min for 2 mins in a Biacore T200 (GE Healthcare). Association time was set to 8 mins and Dissociation to 90 mins at a flow-rate of 30 μl/min Kinetics of binding/dissociation were analysed using a 1:1 model in the BIAevaluation software
# 8. Kinetics of the Binding of Humanized hD9040, hD9041 and hD9042 Antibodies to IL-17BR To further characterize the binding of the lead humanized candidates hD9040, hD9041 and hD9042 antibodies to Human IL-17BR-His, kinetics experiments were performed using the Biacore T200 instrument.
# [2] = target: T1, recombinant Human IL-17BR-His …; experiment: binding ELISA on Human IL-17BR-His, absorbance 650 nm against antibody conc. (nM)
# [3] = target: T2, human IL17RD-his tag; experiment: ELISA, plate coated with 2 ug/ml human IL17RD-his tag, absorbance 450 nm
# Procedure: (§1) ELISA plates were coated overnight at 4° C. with 2 μg/ml human IL17RA-Fc fusion protein(Sino Biological, 10895-H03H), human IL17BR-his tag protein (Sino Biological, 13091-H08H), human IL17RC-histag protein (11747-H08B), human IL17RD-his tag (10507-H08H). The next day, plates were blocked with 1% BSA in PBS, followed by the addition of hD9042. The binding specificity of hD9042 was measured as the absorbance at 450 nm using anti-human IgG F(ab′)2 peroxidase antibody (Jackson ImmunoResearch Inc).
# [4] = target: T3, human IL17RC-histag protein; experiment: ELISA, plate coated with 2 ug/ml human IL17RC-histag protein, absorbance 450 nm
# Procedure: as §1
# [5] = target: T4, human IL17RA-Fc fusion protein; experiment: ELISA, plate coated with 2 ug/ml human IL17RA-Fc fusion protein, absorbance 450 nm
# Procedure: as §1
# [6] = target: T1, recombinant Human IL-17BR-His …; experiment: ELISA, plate coated with 2 ug/ml human IL17BR-his tag protein, detection with anti-human IgG F(ab')2 peroxidase antibody
# Procedure: as §1
# [7] = target: T1, recombinant Human IL-17BR-His …; experiment: binding ELISA on recombinant Human IL-17BR-His extracellular domain, absorbance 450 nm against antibody conc. (nM)
# [8] = target: T5, Mouse IL-17BR-(Fc); experiment: binding ELISA on recombinant Mouse IL-17BR-(Fc) extracellular domain, absorbance 450 nm against antibody conc. (nM)
# [9] = target: Cynomolgus monkey IL-17BR-monoFc (cynomolgus monkey, UniProt A0A2K5TUK1 18-292); experiment: binding ELISA on recombinant Cynomolgus monkey IL-17BR-monoFc extracellular domain, absorbance 450 nm against antibody conc. (nM)
# Chain of Cynomolgus monkey IL-17BR-monoFc (A0A2K5TUK1 entry or part of it): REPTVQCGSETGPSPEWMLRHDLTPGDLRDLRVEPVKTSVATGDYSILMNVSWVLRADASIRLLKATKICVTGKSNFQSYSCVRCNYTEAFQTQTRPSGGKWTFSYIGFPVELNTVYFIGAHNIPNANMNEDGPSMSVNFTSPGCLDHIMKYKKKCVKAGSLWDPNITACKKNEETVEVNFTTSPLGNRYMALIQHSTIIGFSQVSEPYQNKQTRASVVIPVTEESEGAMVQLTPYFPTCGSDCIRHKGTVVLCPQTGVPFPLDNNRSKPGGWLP
Kd [1] [nM],koff [1] [s⁻¹],kon [1] [M⁻¹ s⁻¹],EC50 [2] [nM],binding result [3],binding result [4],binding result [5],EC50 (read off the curve) [6] [nM],EC50 [7] [nM],EC50 [8] [nM],EC50 [9] [nM],Binder
0.02,6.66e-05,3.42e+06,0.474,–,–,–,–,–,–,–,"humanized antibody hD9040 (antibody, V domains shown, Human IgG1/kappa (pHuG1, pHuK vectors)) VH: EVQLVQSGAEVKKPGASVKVSCKTSGYTFISYWMNWVRQAPGQGLEWMGRIDPYDSEIQYNQKFKDRVTLTRDTSISTAYMELSRLRSDDTAVYYCARSGGFDWFAYWGQGTLVTVSS VL: DIQMTQSPSSLSASVGDRVTITCRASENINSNLAWYQQKPGKAPKLLLYDVTNLADGVPSRFSGSGSGTDYTLTISSLQPEDFATYYCQHFWGPPYTFGGGTKVEIK"
0.011,4.44e-05,3.89e+06,0.499,–,–,–,–,–,–,–,"humanized antibody hD9041 (antibody, V domains shown, Human IgG1/kappa (pHuG1, pHuK vectors)) VH: EVQLVQSGAEVKKPGASVKVSCKTSGYTFISYWMNWVRQAPGQGLEWMGRIDPYDSEIQYAQKFQGRVTLTRDTSISTAYMELSRLRSDDTAVYYCARSGGFDWFAYWGQGTLVTVSS VL: DIQMTQSPSSLSASVGDRVTITCRASENINSNLAWYQQKPGKAPKLLLYDVTNLADGVPSRFSGSGSGTDYTLTISSLQPEDFATYYCQHFWGPPYTFGGGTKVEIK"
0.017,8.23e-05,4.85e+06,0.414,no binding,no binding,no binding,~0.3,–,–,–,"humanized antibody hD9042 (antibody, V domains shown, Human IgG1/kappa (pHuG1, pHuK vectors); also called lead candidate) VH: QVQLVQSGAEVKKPGASVKVSCKASGYTFISYWMNWVRQAPGQGLEWMGRIDPYDSEIQYNQKFKDRVTMTRDTSISTAYMELSRLRSDDTAVYYCARSGGFDWFAYWGQGTLVTVSS VL: DIQMTQSPSSLSASVGDRVTITCRASENINSNLAWYQQKPGKAPKLLLYDVTNLADGVPSRFSGSGSGTDYTLTISSLQPEDFATYYCQHFWGPPYTFGGGTKVEIK"
0.017,5e-05,2.9e+06,–,–,–,–,–,0.23,0.216,0.291,"chimeric antibody cD9001 (antibody, V domains shown, Mouse D9.2 variable domains on human IgG1/kappa constant regions; also called chimeric D9.2) VH: QVQLQQPGAELVRPGASVKLSCKTSGYTFISYWMNWVKQGPEQGLEWIGRIDPYDSEIQYNQKFKDKAILTVDKSSSAAYMQLISLTSEDSAVYYCARSGGFDWFAYWGQGTLVTVSA VL: DIQMTQSPASLSVSVGETVTITCRASENINSNLAWYQQKKGKSPQLLVYDVTNLADGVPSRFSGSGSGTQYSLKINSLQSEDFGSYYCQHFWRPPYTFGGGTNLEIK"
